Experiment: Thermal aggregation profiles and Tagg by SDS-PAGE
Type: physicochemical
Conditions: heat treated separately 30 minutes, 42 to 64° C.
Experimental: After incubation, reactions were stopped by transferring the samples to ice for 10 minutes prior to centrifugation at 18,000 r.p.m. for 20 minutes at 4° C. in a Beckman Coulter (Fullerton, Calif., USA) centrifuge (rotor: F12×8.2). The supernatants (3 or 5 μl) were then analyzed by 10% NEXT-GEL SDS-PAGE (Amresco, Solon, Ohio, USA). The gels were illuminated on a transilluminator at 365 nm followed by Coomassie blue staining. Coomassie-stained protein bands corresponding to Ffold were integrated using ImageJ (see the website at rsbweb.nih.gov/ij/) and plotted against the temperature.
To determine the Tagg at which 50% of proteins were aggregated, the thermal aggregation profile data were fit to the following sigmoid function:
Ffold=1−(1/(1+e^(Tagg-T/c))
where Ffold is the normalized fluorescence intensity at temperature T, and c is the Hill slope factor.
Ffold was then determined by SDS-PAGE. For this experiment, equal amounts of the three proteins were mixed to avoid variations in buffer composition and protein concentrations.
Due to the oligomeric quaternary structure of these proteins, experiments were performed separately to avoid the formation of heterogeneous protein complexes.

B1: GK: tetrameric glycerol kinase from E. coli (protein, UniProt P0A6F3 2-502, looked up)
Glycerol kinase: TEKKYIVALDQGTTSSRAVVMDHDANIISVSQREFEQIYPKPGWVEHDPMEIWATQSSTLVEVLAKADISSDQIAAIGITNQRETTIVWEKETGKPIYNAIVWQCRRTAEICEHLKRDGLEDYIRSNTGLVIDPYFSGTKVKWILDHVEGSRERARRGELLFGTVDTWLIWKMTQGRVHVTDYTNASRTMLFNIHTLDWDDKMLEVLDIPREMLPEVRRSSEVYGQTNIGGKGGTRIPISGIAGDQQAALFGQLCVKEGMAKNTYGTGCFMLMNTGEKAVKSENGLLTTIACGPTGEVNYALEGAVFMAGASIQWLRDEMKLINDAYDSEYFATKVQNTNGVYVVPAFTGLGAPYWDPYARGAIFGLTRGVNANHIIRATLESIAYQTRDVLEAMQADSGIRLHALRVDGGAVANNFLMQFQSDILGTRVERPEVREVTALGAAYLAGLAVGFWQNLDELQEKAVIEREFRPGIETTERNYRYAGWKKAVKRAMAWEEHDE
Tagg: 50.4±0.3 °C
